Results from paper PMC11842806, “Molecular basis of foreign DNA recognition by BREX anti-phage immunity system” (Nature Communications, 2025).

T1: BrxX G785T/N823S (TRD variant) (Escherichia coli HS, UniProt P0DUF9 1-1205, G785T;N823S)
T1 sequence: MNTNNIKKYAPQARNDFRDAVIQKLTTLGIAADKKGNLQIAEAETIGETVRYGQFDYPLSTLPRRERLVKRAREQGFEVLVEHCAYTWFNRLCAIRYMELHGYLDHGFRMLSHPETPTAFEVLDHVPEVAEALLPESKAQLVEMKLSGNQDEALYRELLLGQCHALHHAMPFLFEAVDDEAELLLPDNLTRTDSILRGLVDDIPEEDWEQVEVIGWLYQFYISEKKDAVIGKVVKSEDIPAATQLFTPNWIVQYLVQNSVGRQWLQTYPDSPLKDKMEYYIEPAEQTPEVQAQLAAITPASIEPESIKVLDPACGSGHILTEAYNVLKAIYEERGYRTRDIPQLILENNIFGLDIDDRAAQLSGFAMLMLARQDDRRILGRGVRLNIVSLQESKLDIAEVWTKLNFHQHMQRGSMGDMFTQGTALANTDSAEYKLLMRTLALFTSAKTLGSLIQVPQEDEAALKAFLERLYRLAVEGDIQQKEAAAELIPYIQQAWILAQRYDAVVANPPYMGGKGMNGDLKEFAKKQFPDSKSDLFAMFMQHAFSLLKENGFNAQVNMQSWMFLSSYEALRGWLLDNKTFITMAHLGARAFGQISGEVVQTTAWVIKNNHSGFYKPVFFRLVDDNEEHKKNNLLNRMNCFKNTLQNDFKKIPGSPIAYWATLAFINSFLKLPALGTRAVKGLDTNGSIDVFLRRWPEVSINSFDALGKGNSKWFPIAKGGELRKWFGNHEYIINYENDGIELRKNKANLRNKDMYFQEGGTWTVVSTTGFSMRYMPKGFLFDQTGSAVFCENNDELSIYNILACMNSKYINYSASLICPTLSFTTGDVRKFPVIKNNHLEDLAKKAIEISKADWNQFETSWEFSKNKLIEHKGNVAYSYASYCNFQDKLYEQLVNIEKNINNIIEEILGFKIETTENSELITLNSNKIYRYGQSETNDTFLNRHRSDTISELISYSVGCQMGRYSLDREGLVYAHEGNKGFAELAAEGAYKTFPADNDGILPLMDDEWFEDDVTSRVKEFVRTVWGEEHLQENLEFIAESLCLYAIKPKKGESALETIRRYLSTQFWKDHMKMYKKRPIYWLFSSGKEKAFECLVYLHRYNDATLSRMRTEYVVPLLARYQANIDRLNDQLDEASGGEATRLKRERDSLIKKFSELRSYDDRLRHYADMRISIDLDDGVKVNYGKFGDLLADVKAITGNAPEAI


Molecular target: T1, BrxX G785T/N823S (TRD variant)
Test: EMSA; decreased affinity; EMSA: 20 nM Cy5-DNA, 0.5x TBE pH 8.0, 35 mM NaCl, 5% glycerol, +/-0.5 mM SAM or SAH, 30 min, room temperature; BLI: 20 mM Tris-HCl pH 8.0, 100 mM NaCl, 0.05 mg/mL BSA, 0.02% Tween-20, +/-0.5 mM SAM, 30 C
Settings: protein: recombinant; tags: N-His6; label: 5'-Cy5 on strand 1; blunt

Binder	binding result
40 bp BREX (dsDNA) DNA 1: TCAGTAGTCAAGTCAGTGGTAAGGTCAGGACAGGAGTCAG DNA 2: CTGACTCCTGTCCTGACCTTACCACTGACTTGACTACTGA	binds
40 bp BREX 4C (dsDNA) DNA 1: TCAGTAGTCAAGTCAGTGGTCAGGTCAGGACAGGAGTCAG DNA 2: CTGACTCCTGTCCTGACCTGACCACTGACTTGACTACTGA	binds
40 bp BREX 4T (dsDNA) DNA 1: TCAGTAGTCAAGTCAGTGGTTAGGTCAGGACAGGAGTCAG DNA 2: CTGACTCCTGTCCTGACCTAACCACTGACTTGACTACTGA	binds
40 bp BREX 4G (dsDNA) DNA 1: TCAGTAGTCAAGTCAGTGGTGAGGTCAGGACAGGAGTCAG DNA 2: CTGACTCCTGTCCTGACCTCACCACTGACTTGACTACTGA	binds
